Laboratory results published in patent publication US20230257453A1 (published 2023).
Where two headings read alike, the source gives them in different places.

T1: denatured human collagen type III (UniProt P02461 154-1221)
T1 chain: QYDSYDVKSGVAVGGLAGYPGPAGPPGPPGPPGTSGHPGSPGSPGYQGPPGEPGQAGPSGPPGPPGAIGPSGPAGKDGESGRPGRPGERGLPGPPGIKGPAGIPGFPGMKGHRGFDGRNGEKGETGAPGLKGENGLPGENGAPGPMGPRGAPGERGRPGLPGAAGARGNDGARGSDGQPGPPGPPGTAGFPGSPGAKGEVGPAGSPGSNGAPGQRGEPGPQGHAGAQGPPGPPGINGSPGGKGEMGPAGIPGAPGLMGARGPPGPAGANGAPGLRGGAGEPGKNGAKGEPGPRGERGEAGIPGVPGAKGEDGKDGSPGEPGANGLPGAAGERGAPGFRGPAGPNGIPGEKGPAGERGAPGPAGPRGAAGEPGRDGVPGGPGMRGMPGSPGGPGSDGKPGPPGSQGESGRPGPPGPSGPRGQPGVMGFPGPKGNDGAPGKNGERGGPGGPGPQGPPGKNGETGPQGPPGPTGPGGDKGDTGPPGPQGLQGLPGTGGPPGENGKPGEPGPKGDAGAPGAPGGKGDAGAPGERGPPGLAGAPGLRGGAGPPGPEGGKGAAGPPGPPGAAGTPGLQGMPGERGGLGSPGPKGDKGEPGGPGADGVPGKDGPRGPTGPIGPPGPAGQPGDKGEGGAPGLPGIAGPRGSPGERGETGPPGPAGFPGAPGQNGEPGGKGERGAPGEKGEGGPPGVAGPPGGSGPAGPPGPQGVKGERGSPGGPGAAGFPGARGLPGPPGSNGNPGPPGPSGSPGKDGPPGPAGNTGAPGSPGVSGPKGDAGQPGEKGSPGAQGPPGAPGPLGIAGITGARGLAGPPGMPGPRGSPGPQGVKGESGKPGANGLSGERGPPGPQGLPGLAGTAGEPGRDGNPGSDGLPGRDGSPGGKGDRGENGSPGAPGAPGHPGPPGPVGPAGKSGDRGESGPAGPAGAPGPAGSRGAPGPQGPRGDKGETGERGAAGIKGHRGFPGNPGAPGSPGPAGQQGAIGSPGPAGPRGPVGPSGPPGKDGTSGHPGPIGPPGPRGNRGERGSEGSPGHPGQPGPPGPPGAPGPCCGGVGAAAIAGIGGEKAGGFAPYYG


How the values were obtained:
Test in all cases: ELISA
[1] = target: T2, denatured human collagen type IV (UniProt P02462 173-1669; P08572 184-1712)
[2] = target: T3, denatured human collagen I (UniProt P02452 162-1218; P08123 80-1119)
[3] = target: T3, denatured human collagen I; remark: listed apart in the source
[4] = target: T2, denatured human collagen type IV; remark: listed apart in the source
[5] = target: T4, denatured human collagen type V (UniProt P20908 38-1605)
[6] = target: denatured mouse collagen IV (mouse, UniProt P02463 28-1669; P08122 26-1707)
[7] = target: T1, denatured human collagen type III
[8] = target: denatured mouse collagen I (mouse, UniProt P11087 152-1207; Q01149 86-1125)
[9] = target: T4, denatured human collagen type V; remark: listed apart in the source
[10] = target: T1, denatured human collagen type III
[11] = target: T2, denatured human collagen type IV; remark: listed apart in the source

T3 sequence (P02452 162-1218 A1075T, chain 1 of 2): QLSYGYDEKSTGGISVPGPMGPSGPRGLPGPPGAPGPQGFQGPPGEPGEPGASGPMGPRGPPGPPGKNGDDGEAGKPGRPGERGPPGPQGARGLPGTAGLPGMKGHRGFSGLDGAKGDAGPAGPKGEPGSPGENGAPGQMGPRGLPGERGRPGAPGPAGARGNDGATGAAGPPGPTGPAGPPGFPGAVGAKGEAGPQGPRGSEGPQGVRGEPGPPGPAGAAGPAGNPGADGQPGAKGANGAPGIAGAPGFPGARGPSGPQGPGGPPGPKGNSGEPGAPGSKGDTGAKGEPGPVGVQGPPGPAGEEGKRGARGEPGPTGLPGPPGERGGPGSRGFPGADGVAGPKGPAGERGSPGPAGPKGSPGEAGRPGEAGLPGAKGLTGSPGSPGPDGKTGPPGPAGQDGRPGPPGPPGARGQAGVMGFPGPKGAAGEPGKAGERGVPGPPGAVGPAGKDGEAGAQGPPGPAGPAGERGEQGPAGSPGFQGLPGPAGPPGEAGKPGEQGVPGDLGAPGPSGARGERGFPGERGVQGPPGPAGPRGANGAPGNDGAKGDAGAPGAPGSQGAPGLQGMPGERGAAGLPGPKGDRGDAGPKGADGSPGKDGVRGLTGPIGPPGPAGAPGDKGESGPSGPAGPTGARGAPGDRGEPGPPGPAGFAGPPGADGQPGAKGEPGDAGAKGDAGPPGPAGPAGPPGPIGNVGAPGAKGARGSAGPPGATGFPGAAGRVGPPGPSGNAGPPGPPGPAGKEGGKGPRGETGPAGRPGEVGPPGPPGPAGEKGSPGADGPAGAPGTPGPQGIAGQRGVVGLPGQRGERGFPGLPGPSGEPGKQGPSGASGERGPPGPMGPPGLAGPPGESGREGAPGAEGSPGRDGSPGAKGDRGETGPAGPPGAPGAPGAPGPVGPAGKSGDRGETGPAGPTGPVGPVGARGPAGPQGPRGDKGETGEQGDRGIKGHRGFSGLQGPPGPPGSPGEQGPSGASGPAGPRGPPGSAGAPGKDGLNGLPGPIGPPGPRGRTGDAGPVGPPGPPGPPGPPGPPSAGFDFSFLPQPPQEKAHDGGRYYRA
T3 sequence (P08123 80-1119, chain 2 of 2): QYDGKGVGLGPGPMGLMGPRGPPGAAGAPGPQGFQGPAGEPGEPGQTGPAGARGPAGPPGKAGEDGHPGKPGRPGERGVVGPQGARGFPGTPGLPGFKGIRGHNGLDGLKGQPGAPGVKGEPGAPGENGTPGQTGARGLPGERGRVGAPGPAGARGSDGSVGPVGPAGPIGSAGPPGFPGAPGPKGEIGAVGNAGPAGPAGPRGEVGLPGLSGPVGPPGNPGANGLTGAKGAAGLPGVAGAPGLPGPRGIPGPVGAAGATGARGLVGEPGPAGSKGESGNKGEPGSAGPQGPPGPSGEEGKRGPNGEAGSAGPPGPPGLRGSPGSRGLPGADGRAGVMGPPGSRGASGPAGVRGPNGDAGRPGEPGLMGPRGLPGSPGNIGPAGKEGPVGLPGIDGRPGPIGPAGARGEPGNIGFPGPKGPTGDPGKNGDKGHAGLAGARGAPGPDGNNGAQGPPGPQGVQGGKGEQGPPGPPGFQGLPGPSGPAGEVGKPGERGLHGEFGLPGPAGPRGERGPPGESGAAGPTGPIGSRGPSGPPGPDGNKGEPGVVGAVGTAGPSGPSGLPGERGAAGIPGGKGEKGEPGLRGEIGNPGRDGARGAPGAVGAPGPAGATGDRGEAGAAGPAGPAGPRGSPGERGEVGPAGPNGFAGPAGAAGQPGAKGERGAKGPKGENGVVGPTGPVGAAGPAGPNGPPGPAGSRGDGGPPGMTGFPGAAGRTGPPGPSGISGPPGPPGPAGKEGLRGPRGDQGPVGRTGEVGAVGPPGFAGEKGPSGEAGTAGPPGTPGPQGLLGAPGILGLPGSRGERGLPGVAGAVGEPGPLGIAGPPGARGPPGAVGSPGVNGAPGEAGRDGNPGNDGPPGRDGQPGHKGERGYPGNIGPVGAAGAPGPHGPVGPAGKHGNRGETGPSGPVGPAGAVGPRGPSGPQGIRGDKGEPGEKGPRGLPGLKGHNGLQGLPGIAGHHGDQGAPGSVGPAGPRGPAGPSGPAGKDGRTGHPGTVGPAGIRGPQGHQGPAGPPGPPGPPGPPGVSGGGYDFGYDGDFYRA
T4 sequence (P20908 38-1605): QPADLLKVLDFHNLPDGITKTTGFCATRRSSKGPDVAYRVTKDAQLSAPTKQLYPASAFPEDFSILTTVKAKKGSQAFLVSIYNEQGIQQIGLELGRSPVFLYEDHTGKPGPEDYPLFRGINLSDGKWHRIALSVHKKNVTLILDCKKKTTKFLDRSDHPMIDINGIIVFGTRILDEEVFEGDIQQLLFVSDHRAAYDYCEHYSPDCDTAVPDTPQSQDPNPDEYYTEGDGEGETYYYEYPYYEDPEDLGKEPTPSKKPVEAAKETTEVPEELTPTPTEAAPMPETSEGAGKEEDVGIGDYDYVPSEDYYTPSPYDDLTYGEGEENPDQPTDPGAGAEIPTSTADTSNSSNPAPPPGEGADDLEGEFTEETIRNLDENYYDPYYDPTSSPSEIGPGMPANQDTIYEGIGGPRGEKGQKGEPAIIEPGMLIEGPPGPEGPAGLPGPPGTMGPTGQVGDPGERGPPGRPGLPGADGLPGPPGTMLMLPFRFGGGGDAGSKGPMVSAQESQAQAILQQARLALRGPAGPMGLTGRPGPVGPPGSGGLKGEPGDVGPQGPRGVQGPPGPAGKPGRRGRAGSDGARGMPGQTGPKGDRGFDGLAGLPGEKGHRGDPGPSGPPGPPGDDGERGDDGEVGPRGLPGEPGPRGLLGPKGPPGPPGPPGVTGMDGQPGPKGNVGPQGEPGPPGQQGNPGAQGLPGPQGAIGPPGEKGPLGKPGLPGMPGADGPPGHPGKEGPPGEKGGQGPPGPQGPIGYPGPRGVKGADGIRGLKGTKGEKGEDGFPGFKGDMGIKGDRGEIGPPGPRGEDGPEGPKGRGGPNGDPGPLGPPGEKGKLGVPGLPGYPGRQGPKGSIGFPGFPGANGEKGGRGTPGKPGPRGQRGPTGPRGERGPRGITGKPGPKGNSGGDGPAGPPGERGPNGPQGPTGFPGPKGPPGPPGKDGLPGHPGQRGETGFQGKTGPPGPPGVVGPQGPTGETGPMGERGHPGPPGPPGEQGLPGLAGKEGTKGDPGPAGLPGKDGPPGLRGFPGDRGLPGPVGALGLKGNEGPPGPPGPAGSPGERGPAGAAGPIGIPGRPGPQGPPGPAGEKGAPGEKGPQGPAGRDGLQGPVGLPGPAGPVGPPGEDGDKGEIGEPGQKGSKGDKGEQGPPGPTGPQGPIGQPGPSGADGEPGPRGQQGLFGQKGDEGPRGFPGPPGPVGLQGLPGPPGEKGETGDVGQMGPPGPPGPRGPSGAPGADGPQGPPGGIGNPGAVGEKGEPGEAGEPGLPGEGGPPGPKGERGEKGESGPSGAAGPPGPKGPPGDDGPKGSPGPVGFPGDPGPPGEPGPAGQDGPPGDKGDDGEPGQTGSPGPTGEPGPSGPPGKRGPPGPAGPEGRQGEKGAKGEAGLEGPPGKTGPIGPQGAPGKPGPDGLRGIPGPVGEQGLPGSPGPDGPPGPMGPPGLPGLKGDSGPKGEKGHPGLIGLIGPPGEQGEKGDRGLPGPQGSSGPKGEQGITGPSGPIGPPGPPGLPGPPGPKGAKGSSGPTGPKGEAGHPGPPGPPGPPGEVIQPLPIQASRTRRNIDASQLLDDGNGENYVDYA

Binder | EC50 [1] [nM] | EC50 [2] [nM] | EC50 [3] [nM] | EC50 [4] [nM] | also measured
P27152714 (antibody, V domains shown) VH: QVTLKESGPALVKPTQTLTLTCTFSGFSLSTPGMGVWWIRQPPGKALEWLADIWWDDNKYTNPSLKSRLTISKDTSKNQVVLTMTNMDPVDTATYYCARRANYGNPYYAQDYWGQGTTVTVSS VL: DIVMTQTPLSLPVTPGEPASISCRSSQSIVHSQGNTYLEWYLQKPGQSPQLLIYKVSNRFSGVPDRFSGSGSGTDFTLKISRVEAEDVGVYYCFQGSHVPWTFGQGTKVEIKR | 13 | 18.5 |  |  | 
P27612716 (antibody, V domains shown) VH: EVQLVESGGGLVQPGGSLRLSCAASGFSLSTPGMGVWWIRQAPGKGLEWLADIWWDDNKYTNPSLKSRLTISKDNAKNSLYLQMNSLRAEDTAVYYCARRANYGNPYYAQDYWGQGTTVTVSS VL: DIVMTQTPLSLPVTPGEPASISCRSSQSIVSSWGNTYLEWYLQKPGQSPQLLIYKVSNRFSGVPDRFSGSGSGTDFTLKISRVEAEDVGVYYCFQGSHVPWTFGQGTKVEIKR |  |  | 10.9 | 6.13 | 
P27662716 (antibody, V domains shown) VH: QVTLKESGPALVKPTQTLTLTCTFSGFSLSTPGMGVWWIRQPSGEGLEWLADIWWDDNKYTNPSLKSRLTISKDTSKNQVVLTMTNMDPVDTATYYCARRANYGNPYYAQDYWGQGTTVTVSS VL: DIVMTQTPLSLPVTPGEPASISCRSSQSIVSSWGNTYLEWYLQKPGQSPQLLIYKVSNRFSGVPDRFSGSGSGTDFTLKISRVEAEDVGVYYCFQGSHVPWTFGQGTKVEIKR |  |  | 9.81 | 9.77 | 
P27582716 (antibody, V domains shown) VH: EVQLVESGGGLVQPGGSLRLSCAASGFSLSTPGMGVWWIRQAPGKGLEWVADIWWDDNKYTNPSLKSRLTISRDNAKNSLYLQMNSLRAEDTAVYYCARRANYGNPYYAQDYWGQGTTVTVSS VL: DIVMTQTPLSLPVTPGEPASISCRSSQSIVSSWGNTYLEWYLQKPGQSPQLLIYKVSNRFSGVPDRFSGSGSGTDFTLKISRVEAEDVGVYYCFQGSHVPWTFGQGTKVEIKR |  |  | 9.38 | 3.83 | 
P27602716 (antibody, V domains shown) VH: EVQLVESGGGLVQPGGSLRLSCAASGFSLSTPGMGVWWVRQAPGKGLEWLADIWWDDNKYTNPSLKSRLTISKDNAKNSLYLQMNSLRAEDTAVYYCARRANYGNPYYAQDYWGQGTTVTVSS VL: DIVMTQTPLSLPVTPGEPASISCRSSQSIVSSWGNTYLEWYLQKPGQSPQLLIYKVSNRFSGVPDRFSGSGSGTDFTLKISRVEAEDVGVYYCFQGSHVPWTFGQGTKVEIKR |  |  | 21.1 | 11.9 | 
P27122713 (antibody) heavy: not shown light: DIVMTQTPLSLPVTPGEPASISCRSSQSIVHSNGNTYLEWYLQKPGQSPQLLIYKVSNRFSGVPDRFSGSGSGTDFTLKISRVEAEDVGVYYCFQGSHVPWTFGQGTKVEIKRTVAAPSVFIFPPSDEQLKSGTASVVCLLNNFYPREAKVQWKVDNALQSGNSQESVTEQDSKDSTYSLSSTLTLSKADYEKHKVYACEVTHQGLSSPVTKSFNRGEC | 10.4 | 59.7 |  |  | EC50 [5]: ~259 nM; EC50 [6]: 487 nM; EC50 [7]: 32.9 nM
P27152716 (antibody) heavy: not shown light: DIVMTQTPLSLPVTPGEPASISCRSSQSIVSSWGNTYLEWYLQKPGQSPQLLIYKVSNRFSGVPDRFSGSGSGTDFTLKISRVEAEDVGVYYCFQGSHVPWTFGQGTKVEIKRTVAAPSVFIFPPSDEQLKSGTASVVCLLNNFYPREAKVQWKVDNALQSGNSQESVTEQDSKDSTYSLSSTLTLSKADYEKHKVYACEVTHQGLSSPVTKSFNRGEC | 1.37 | 2.12 |  |  | EC50 [5]: 15.2 nM; EC50 [6]: 229 nM; EC50 [7]: 9.63 nM; EC50 [8]: 10.2 nM
P27962716 (antibody) chain 1: not shown chain 2: DIVMTQTPLSLPVTPGEPASISCRSSQSIVSSWGNTYLEWYLQKPGQSPQLLIYKVSNRFSGVPDRFSGSGSGTDFTLKISRVEAEDVGVYYCFQGSHVPWTFGQGTKVEIKRTVAAPSVFIFPPSDEQLKSGTASVVCLLNNFYPREAKVQWKVDNALQSGNSQESVTEQDSKDSTYSLSSTLTLSKADYEKHKVYACEVTHQGLSSPVTKSFNRGEC |  |  |  |  | EC50 [9]: 3.31 nM; EC50 [10]: 3.94 nM; EC50 [11]: 18.6 nM
P27122716 (antibody) chain 1: not shown chain 2: DIVMTQTPLSLPVTPGEPASISCRSSQSIVSSWGNTYLEWYLQKPGQSPQLLIYKVSNRFSGVPDRFSGSGSGTDFTLKISRVEAEDVGVYYCFQGSHVPWTFGQGTKVEIKRTVAAPSVFIFPPSDEQLKSGTASVVCLLNNFYPREAKVQWKVDNALQSGNSQESVTEQDSKDSTYSLSSTLTLSKADYEKHKVYACEVTHQGLSSPVTKSFNRGEC | 125 | 19 |  |  | 
P27152798 (antibody) heavy: not shown light: DIVMTQTPLSLPVTPGEPASISCRSSQSIVHSNANTYLEWYLQKPGQSPQLLIYKVSNRFSGVPDRFSGSGSGTDFTLKISRVEAEDVGVYYCFQGSHVPWTFGQGTKVEIKRTVAAPSVFIFPPSDEQLKSGTASVVCLLNNFYPREAKVQWKVDNALQSGNSQESVTEQDSKDSTYSLSSTLTLSKADYEKHKVYACEVTHQGLSSPVTKSFNRGEC |  | 76.3 |  | 9.97 | EC50 [5]: 86.2 nM; EC50 [6]: 197 nM; EC50 [7]: 59.6 nM
P27122714 (antibody) chain 1: not shown chain 2: DIVMTQTPLSLPVTPGEPASISCRSSQSIVHSQGNTYLEWYLQKPGQSPQLLIYKVSNRFSGVPDRFSGSGSGTDFTLKISRVEAEDVGVYYCFQGSHVPWTFGQGTKVEIKRTVAAPSVFIFPPSDEQLKSGTASVVCLLNNFYPREAKVQWKVDNALQSGNSQESVTEQDSKDSTYSLSSTLTLSKADYEKHKVYACEVTHQGLSSPVTKSFNRGEC | 33.9 | 80.8 |  |  | 
